The source of these data is patent US20100260668A1 (published 2010).

B1: DVD452 (bispecific antibody, IgG1)
VH: EVQLVESGGGLVQPGGSLRLSCAASGFTINASWIHWVRQAPGKGLEWVGAIYPYSGYTNYADSVKGRFTISADTSKNTAYLQMNSLRAEDTAVYYCARWGHSTSPWAMDYWGQGTLVTVSSASTKGPSVFPLAPQVQLVQSGAEVKKPGASVKISCKASGYSFTAYYIHWVKQAPGQGLEWIGYISSYNGATNYNQKFKGRVTFTTDTSTSTAYMELRSLRSDDTAVYYCARDYDYDVGMDYWGQGTLVTVSS
VL: DIQMTQSPSSLSASVGDRVTITCRASQVIRRSLAWYQQKPGKAPKLLIYAASNLASGVPSRFSGSGSGTDFTLTISSLQPEDFATYYCQQSNTSPLTFGQGTKVEIKRTVAAPSVFIFPPDIVMTQSPDSLAVSLGERATISCRASESVDNYGISFMKWFQQKPGQPPKLLIYAASNQGSGVPDRFSGSGSGTDFTLTISSLQAEDVAVYYCQQSKEVPWTFGGGTKVEIKR
notes: DVD-Ig, outer AB071 / inner AB069; HC linker long, LC linker long; also called DVD452H; DVD452L
B2: DVD451 (bispecific antibody, IgG1)
VH: QVQLVQSGAEVKKPGASVKISCKASGYSFTAYYIHWVKQAPGQGLEWIGYISSYNGATNYNQKFKGRVTFTTDTSTSTAYMELRSLRSDDTAVYYCARDYDYDVGMDYWGQGTLVTVSSASTKGPSVFPLAPEVQLVESGGGLVQPGGSLRLSCAASGFTINASWIHWVRQAPGKGLEWVGAIYPYSGYTNYADSVKGRFTISADTSKNTAYLQMNSLRAEDTAVYYCARWGHSTSPWAMDYWGQGTLVTVSS
VL: DIVMTQSPDSLAVSLGERATISCRASESVDNYGISFMKWFQQKPGQPPKLLIYAASNQGSGVPDRFSGSGSGTDFTLTISSLQAEDVAVYYCQQSKEVPWTFGGGTKVEIKRTVAAPSVFIFPPDIQMTQSPSSLSASVGDRVTITCRASQVIRRSLAWYQQKPGKAPKLLIYAASNLASGVPSRFSGSGSGTDFTLTISSLQPEDFATYYCQQSNTSPLTFGQGTKVEIKR
notes: DVD-Ig, outer AB069 / inner AB071; HC linker long, LC linker long; also called DVD451H; DVD451L
B3: DVD471 (bispecific antibody, IgG1)
VH: EVQLVESGGGLVQPGGSLRLSCAASGFTFTDNWISWVRQAPGKGLEWVGYISPNSGFTYYADSVKGRFTISADTSKNTAYLQMNSLRAEDTAVYYCARDNFGGYFDYWGQGTLVTVSSASTKGPSVFPLAPEVQLVESGGGLVQPGGSLRLSCAASGFTISDYWIHWVRQAPGKGLEWVAGITPAGGYTYYADSVKGRFTISADTSKNTAYLQMNSLRAEDTAVYYCARFVFFLPYAMDYWGQGTLVTVSS
VL: DIQMTQSPSSLSASVGDRVTITCRASQDVSTAVAWYQQKPGKAPKLLIYSASFLYSGVPSRFSGSGSGTDFTLTISSLQPEDFATTYYCQQSYTGTVTFGQGTKVEIKRTVAAPSVFIFPPDIQMTQSPSSLSASVGDRVTITCRASQDVSTAVAWYQQKPGKAPKLLIYSASFLYSGVPSRFSGSGSGTDFTLTISSLQPEDFATYYCQQSYTTPPTFGQGTKVEIKR
notes: HC linker long, LC linker long; also called DVD471H; DVD471L
B4: DVD483 (bispecific antibody, IgG1)
VH: EVQLVESGGGLVQPGGSLRLSCAASGFTFTDNWISWVRQAPGKGLEWVGYISPNSGFTYYADSVKGRFTISADTSKNTAYLQMNSLRAEDTAVYYCARDNFGGYFDYWGQGTLVTVSSASTKGPEVQLVESGGGLVQPGGSLRLSCAASGFTISDYWIHWVRQAPGKGLEWVAGITPAGGYTYYADSVKGRFTISADTSKNTAYLQMNSLRAEDTAVYYCARFVFFLPYAMDYWGQGTLVTVSS
VL: DIQMTQSPSSLSASVGDRVTITCRASQDVSTAVAWYQQKPGKAPKLLIYSASFLYSGVPSRFSGSGSGTDFTLTISSLQPEDFATTYYCQQSYTGTVTFGQGTKVEIKRTVAAPSVFIFPPDIQMTQSPSSLSASVGDRVTITCRASQDVSTAVAWYQQKPGKAPKLLIYSASFLYSGVPSRFSGSGSGTDFTLTISSLQPEDFATYYCQQSYTTPPTFGQGTKVEIKR
notes: HC linker short, LC linker long; also called DVD483H; DVD483L
B5: DVD477 (bispecific antibody, IgG1)
VH: EVQLVESGGGLVQPGGSLRLSCAASGFTFTDNWISWVRQAPGKGLEWVGYISPNSGFTYYADSVKGRFTISADTSKNTAYLQMNSLRAEDTAVYYCARDNFGGYFDYWGQGTLVTVSSASTKGPSVFPLAPEVQLVESGGGLVQPGGSLRLSCAASGFTISDYWIHWVRQAPGKGLEWVAGITPAGGYTYYADSVKGRFTISADTSKNTAYLQMNSLRAEDTAVYYCARFVFFLPYAMDYWGQGTLVTVSS
VL: DIQMTQSPSSLSASVGDRVTITCRASQDVSTAVAWYQQKPGKAPKLLIYSASFLYSGVPSRFSGSGSGTDFTLTISSLQPEDFATTYYCQQSYTGTVTFGQGTKVEIKRTVAAPDIQMTQSPSSLSASVGDRVTITCRASQDVSTAVAWYQQKPGKAPKLLIYSASFLYSGVPSRFSGSGSGTDFTLTISSLQPEDFATYYCQQSYTTPPTFGQGTKVEIKR
notes: HC linker long, LC linker short; also called DVD477H; DVD477L
B6: DVD445 (bispecific antibody, IgG1)
VH: QVQLVQSGAEVKKPGASVKISCKASGYSFTAYYIHWVKQAPGQGLEWIGYISSYNGATNYNQKFKGRVTFTTDTSTSTAYMELRSLRSDDTAVYYCARDYDYDVGMDYWGQGTLVTVSSASTKGPEVQLVESGGGLVQPGGSLRLSCAASGFTINASWIHWVRQAPGKGLEWVGAIYPYSGYTNYADSVKGRFTISADTSKNTAYLQMNSLRAEDTAVYYCARWGHSTSPWAMDYWGQGTLVTVSS
VL: DIVMTQSPDSLAVSLGERATISCRASESVDNYGISFMKWFQQKPGQPPKLLIYAASNQGSGVPDRFSGSGSGTDFTLTISSLQAEDVAVYYCQQSKEVPWTFGGGTKVEIKRTVAAPDIQMTQSPSSLSASVGDRVTITCRASQVIRRSLAWYQQKPGKAPKLLIYAASNLASGVPSRFSGSGSGTDFTLTISSLQPEDFATYYCQQSNTSPLTFGQGTKVEIKR
notes: DVD-Ig, outer AB069 / inner AB071; HC linker short, LC linker short; also called DVD445H; DVD445L
B7: DVD457 (bispecific antibody, IgG1)
VH: QVQLVQSGAEVKKPGASVKISCKASGYSFTAYYIHWVKQAPGQGLEWIGYISSYNGATNYNQKFKGRVTFTTDTSTSTAYMELRSLRSDDTAVYYCARDYDYDVGMDYWGQGTLVTVSSASTKGPSVFPLAPEVQLVESGGGLVQPGGSLRLSCAASGFTINASWIHWVRQAPGKGLEWVGAIYPYSGYTNYADSVKGRFTISADTSKNTAYLQMNSLRAEDTAVYYCARWGHSTSPWAMDYWGQGTLVTVSS
VL: DIVMTQSPDSLAVSLGERATISCRASESVDNYGISFMKWFQQKPGQPPKLLIYAASNQGSGVPDRFSGSGSGTDFTLTISSLQAEDVAVYYCQQSKEVPWTFGGGTKVEIKRTVAAPDIQMTQSPSSLSASVGDRVTITCRASQVIRRSLAWYQQKPGKAPKLLIYAASNLASGVPSRFSGSGSGTDFTLTISSLQPEDFATYYCQQSNTSPLTFGQGTKVEIKR
notes: DVD-Ig, outer AB069 / inner AB071; HC linker long, LC linker short; also called DVD457H; DVD457L
B8: DVD466 (bispecific antibody, IgG1)
VH: EVQLVESGGGLVQPGGSLRLSCAASGFTISDYWIHWVRQAPGKGLEWVAGITPAGGYTYYADSVKGRFTISADTSKNTAYLQMNSLRAEDTAVYYCARFVFFLPYAMDYWGQGTLVTVSSASTKGPEVQLVESGGGLVQPGGSLRLSCAASGFTFTDNWISWVRQAPGKGLEWVGYISPNSGFTYYADSVKGRFTISADTSKNTAYLQMNSLRAEDTAVYYCARDNFGGYFDYWGQGTLVTVSS
VL: DIQMTQSPSSLSASVGDRVTITCRASQDVSTAVAWYQQKPGKAPKLLIYSASFLYSGVPSRFSGSGSGTDFTLTISSLQPEDFATYYCQQSYTTPPTFGQGTKVEIKRTVAAPDIQMTQSPSSLSASVGDRVTITCRASQDVSTAVAWYQQKPGKAPKLLIYSASFLYSGVPSRFSGSGSGTDFTLTISSLQPEDFATTYYCQQSYTGTVTFGQGTKVEIKR
notes: HC linker short, LC linker short; also called DVD466H; DVD466L
B9: DVD484 (bispecific antibody, IgG1)
VH: EVQLVESGGGLVQPGGSLRLSCAASGFTISDYWIHWVRQAPGKGLEWVAGITPAGGYTYYADSVKGRFTISADTSKNTAYLQMNSLRAEDTAVYYCARFVFFLPYAMDYWGQGTLVTVSSASTKGPEVQLVESGGGLVQPGGSLRLSCAASGFTFTDNWISWVRQAPGKGLEWVGYISPNSGFTYYADSVKGRFTISADTSKNTAYLQMNSLRAEDTAVYYCARDNFGGYFDYWGQGTLVTVSS
VL: DIQMTQSPSSLSASVGDRVTITCRASQDVSTAVAWYQQKPGKAPKLLIYSASFLYSGVPSRFSGSGSGTDFTLTISSLQPEDFATYYCQQSYTTPPTFGQGTKVEIKRTVAAPSVFIFPPDIQMTQSPSSLSASVGDRVTITCRASQDVSTAVAWYQQKPGKAPKLLIYSASFLYSGVPSRFSGSGSGTDFTLTISSLQPEDFATTYYCQQSYTGTVTFGQGTKVEIKR
notes: HC linker short, LC linker long; also called DVD484H; DVD484L
B10: DVD478 (bispecific antibody, IgG1)
VH: EVQLVESGGGLVQPGGSLRLSCAASGFTISDYWIHWVRQAPGKGLEWVAGITPAGGYTYYADSVKGRFTISADTSKNTAYLQMNSLRAEDTAVYYCARFVFFLPYAMDYWGQGTLVTVSSASTKGPSVFPLAPEVQLVESGGGLVQPGGSLRLSCAASGFTFTDNWISWVRQAPGKGLEWVGYISPNSGFTYYADSVKGRFTISADTSKNTAYLQMNSLRAEDTAVYYCARDNFGGYFDYWGQGTLVTVSS
VL: DIQMTQSPSSLSASVGDRVTITCRASQDVSTAVAWYQQKPGKAPKLLIYSASFLYSGVPSRFSGSGSGTDFTLTISSLQPEDFATYYCQQSYTTPPTFGQGTKVEIKRTVAAPDIQMTQSPSSLSASVGDRVTITCRASQDVSTAVAWYQQKPGKAPKLLIYSASFLYSGVPSRFSGSGSGTDFTLTISSLQPEDFATTYYCQQSYTGTVTFGQGTKVEIKR
notes: HC linker long, LC linker short; also called DVD478H; DVD478L
B11: DVD446 (bispecific antibody, IgG1)
VH: EVQLVESGGGLVQPGGSLRLSCAASGFTINASWIHWVRQAPGKGLEWVGAIYPYSGYTNYADSVKGRFTISADTSKNTAYLQMNSLRAEDTAVYYCARWGHSTSPWAMDYWGQGTLVTVSSASTKGPQVQLVQSGAEVKKPGASVKISCKASGYSFTAYYIHWVKQAPGQGLEWIGYISSYNGATNYNQKFKGRVTFTTDTSTSTAYMELRSLRSDDTAVYYCARDYDYDVGMDYWGQGTLVTVSS
VL: DIQMTQSPSSLSASVGDRVTITCRASQVIRRSLAWYQQKPGKAPKLLIYAASNLASGVPSRFSGSGSGTDFTLTISSLQPEDFATYYCQQSNTSPLTFGQGTKVEIKRTVAAPDIVMTQSPDSLAVSLGERATISCRASESVDNYGISFMKWFQQKPGQPPKLLIYAASNQGSGVPDRFSGSGSGTDFTLTISSLQAEDVAVYYCQQSKEVPWTFGGGTKVEIKR
notes: DVD-Ig, outer AB071 / inner AB069; HC linker short, LC linker short; also called DVD446H; DVD446L
B12: DVD472 (bispecific antibody, IgG1)
VH: EVQLVESGGGLVQPGGSLRLSCAASGFTISDYWIHWVRQAPGKGLEWVAGITPAGGYTYYADSVKGRFTISADTSKNTAYLQMNSLRAEDTAVYYCARFVFFLPYAMDYWGQGTLVTVSSASTKGPSVFPLAPEVQLVESGGGLVQPGGSLRLSCAASGFTFTDNWISWVRQAPGKGLEWVGYISPNSGFTYYADSVKGRFTISADTSKNTAYLQMNSLRAEDTAVYYCARDNFGGYFDYWGQGTLVTVSS
VL: DIQMTQSPSSLSASVGDRVTITCRASQDVSTAVAWYQQKPGKAPKLLIYSASFLYSGVPSRFSGSGSGTDFTLTISSLQPEDFATYYCQQSYTTPPTFGQGTKVEIKRTVAAPSVFIFPPDIQMTQSPSSLSASVGDRVTITCRASQDVSTAVAWYQQKPGKAPKLLIYSASFLYSGVPSRFSGSGSGTDFTLTISSLQPEDFATTYYCQQSYTGTVTFGQGTKVEIKR
notes: HC linker long, LC linker long; also called DVD472H; DVD472L

The target in the test is VEGF (VEGF 1-165 aa, R&D Systems 293-VE-010) (UniProt P15692 27-191). The experiment in a line: Direct bind ELISA, VEGF coated on plate.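 Note: ELISA screening of antibodies for binding to the plate-coated target antigen.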 In general terms: In an ELISA, binding on a coated surface is turned into a signal by an enzyme label.
Chain of VEGF (VEGF 1-165 aa, R&D Systems 293-VE-010) (P15692 other isoform, or with tags, fused parts or gaps limits assumed): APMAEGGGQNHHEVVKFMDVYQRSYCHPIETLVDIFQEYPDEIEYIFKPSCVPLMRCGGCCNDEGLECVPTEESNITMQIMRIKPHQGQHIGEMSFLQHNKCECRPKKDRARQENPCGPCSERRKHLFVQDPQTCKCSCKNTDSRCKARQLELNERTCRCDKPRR
In general, EC50 refers to the concentration needed to bring the measured effect to its halfway point. The low end stands for a more potent agent, the high end for a less potent agent. The molecule B1 yielded a concentration for a half-maximal effect (EC50) of 17.8 nM. As for B2, it took 2400 nM to reach a half-maximal effect (EC50). Molecule B3 had a concentration giving a half-maximal response (EC50) of 30.1 nM. Then B4, with 46.1 nM; and B5, with 41.7 nM; and B6, with 14500 nM. For B7 the value was 1480 nM. For the molecule B8, a half-maximal response (EC50) required 2.61 nM. For B9 the value was 4.84 nM; for B10, 2.72 nM; for B11, 14.4 nM. For B12 the value was 9.22 nM.
